Columns and labels:
[1] = Example 9: screening of rhamnosidase variants for derhamnosylation of saponins in crude bark extract; format: biochemical, Quillaja saponaria; settings: R1 round: 20 deg C, 22 h, lysate 1.25% v/v, CBE 80% v/v, 100 mM Potassium phosphate pH 6
Procedure: Libraries of genetic variants encoding mutations in the wild type Kribbella flavida rhamnosidase (SEQ ID No. 1017) were prepared using molecular biology techniques, enzymes were prepared linked to a C-terminally located His-tag. Single monoclonal colonies were grown in 400 ul of expression medium and protein expressed. Cell pellets were lysed in 200 ul of the relevant buffer (Table 17).
Lysate was diluted appropriately in the relevant buffer to allow a lysate loading of the indicated % loading (1% loading corresponds to use of 2 ul original lysate in a 200 ul reaction).
Crude bark extract (CBE) obtained by aqueous extraction of Quillaja saponaria and containing at least 2.80 mg/ml QS-21 (by HPLC-UV) was adjusted to pH 6 by dropwise addition of 2M NaOH with stirring. The relevant concentration of the relevant glucosidase was added. The appropriate relative volume of pH 6 CBE (160 ul (for 80%) or 150 ul (for 75%)) was added to each well of the reaction plate. The reaction plate was sealed and incubated at the relevant temperature and time.
The reaction plate was quenched by adding 200 uL of MeCN (2% AcOH, 1 mg/mL hexanophenone) to each well of the plates. The quenched reaction plate was re-sealed and incubated at 20 deg C. with shaking for 10 min. The reaction plate was then centrifuged (10 min, 4 degC).
200 uL was transferred from each well of the quenched plate to the corresponding wells of a fresh 96 well plate and sealed. The plate was analysed by UV HPLC with the method described in Example 4.
Three key peaks of interest are apparent using this chromatography: Left Peak (retention time approximately 2.30-2.35 min) comprising mainly QS-17 family components; Middle Peak (retention time approximately 2.37-2.42 min) comprising mainly QS-18 family components and desglucosyl-QS-17 family components; and Right Peak (retention time approximately 2.44-2.50 min) comprising mainly QS-21 family components. Peak identity was supported by MS/MS.
Enzyme activity is calculated as the % conversion of the Left Peak present in the crude bark extract: […]

[2] = Example 10: derhamnosylation of saponins in crude bark extract (50%) using WT and engineered rhamnosidases R1 to R5; format: biochemical, Quillaja saponaria; settings: 7 h, 50% CBE, 35 degC; for % Right Peak: starting CBE 26; for % Left Peak: starting CBE 30; for % Middle Peak: starting CBE 44
Procedure: Lyophilised powders from clarified cell lysate expressing glucosidases (from Example 8 WT glucosidase and engineered glucosidase polypeptides G1 to G5) and rhamnosidases (from Example 9 WT rhamnosidase and engineered rhamnosidase polypeptides R1 to R5) were dissolved in 200 mM sodium acetate aqueous solution at pH 5.8 to prepare the enzyme solutions at 4 fold the final reaction concentration as shown in Tables 19 and 20.
Each rhamnosidase solution was combined with an equal volume of 200 mM sodium acetate aqueous solution at pH 5.8 and separately with an equal volume of 200 mM sodium acetate aqueous solution at pH 5.8 containing 2 mg/ml glucosidase G5. This is a sufficient loading of glucosidase to effect complete hydrolysis of the relevant glucose moiety within 4 hours.
CBE was adjusted to pH of 6.0 to 6.2 with 2M sodium hydroxide and an equal volume added to the enzyme solution to prepare the reaction mix (i.e. 50% CBE concentration in reaction mix) and the concentration of glucosidase and/or rhamnosidase is shown in Tables 19 and 20. The reaction mix was heated to 35 degC for the time indicated in Tables 19 and 20, after which the reaction was quenched by addition of an equal volume of MeCN containing 2% acetic acid and shaken at room temperature for 10 mins prior to centrifugation (10 min, 4 degC) to remove particulates. Samples were analysed by UV HPLC using method of Experiment 4-4.
The change in composition of the Left, Middle and Right peaks is shown in Tables 19 and 20. The composition changes by the action of the enzymes depending on the presence or absence of the partner enzyme. The extent of reaction is proportional to the enzyme concentration and the reaction time under these conditions. The tables show data for enzyme concentrations and the reaction times providing for equivalent extents of reaction. The improvement resulting from the mutations introduced for each variant is equal to the fold change in enzyme concentration×time (i.e. fold improvement=(enzyme concentration×time) for preceding variant÷(enzyme concentration×time) for later variant). A cumulative fold improvement over the original enzyme variant is calculated by the product of the individual fold improvements.

[3] = rhamnosidase 2.5 mg/ml + glucosidase G5 0.5 mg/ml
[4] = rhamnosidase 2.5 mg/ml, no glucosidase

Right Peak % ([1]; negative control 26.35): 27.08% | Left Peak % ([1]; negative control 29.36): 27.04% | Middle Peak % ([1]; negative control 44.30): 45.89% | Cumulative Fold improvement in primary enzyme loading × time [2, 3]: 2 | Fold improvement in primary enzyme loading × time [2, 3]: 2.0 | Cumulative Fold improvement in primary enzyme loading × time [2, 4]: 2 | Fold improvement in primary enzyme loading × time [2, 4]: 2.0
B1: Variant R1: engineered rhamnosidase polypeptide, variant of Kribbella flavida rhamnosidase SEQ ID No. 1017 (protein)
chain: MSFPAAPARLRFEHRTDPGPVLGIGTATPRLSWQVPTAPDDYRQAGYEVEIARGDAAPEQYTVDSADQVLVPWPGTPLAARESATVRVRVRGDGDWSQWSDPATVEAGLLSADDWTARFVSPRENAGHEAPAPLIGGVIDLPADIAQARLYATAHGIYEPTLNGTRVGDEQLAPGWTAYEQRLRYQTYDVTDLVAPGENRLELLVGNGWYRGRLGFHGGHSLYGDRLAVLAQLEVTTATGEVKVLASDGTWTTRETNVLADDLYDGQHVDLRRTLGEPGPVDVLDADLSLLVAPDGPPVRVTDVLPAKAVTTSPAGKTLVDFGQNVVGRLRLRVRGGAAGDEIVLRHAEVLEDGELGVRPLRTAKATDSFVLAGPDEVTLEPTLTFHGFRYAEITGVPDLRAEDVEAVVVGSDLRRTGWFESSHPLLDRFHENVVWGMRGNFLDVPTDCPQRDERLGWTGDIQVFSPTASFLFDTAGFLTNWLADLIAEQHKDGSVPFVVPDVLRQPGPATAAWGDAATIVPWVLYERTGDAGLLARQLPSMRAWVDRMAGLAGDDLLWVGGFQFGDWLDPTAPPDDPFRAKADPDVLATAHLARSAEVVALAAEVVGAGELAREYAELAARVRQAFAAEYTTGSGRVLSDAATNYALALQWALLPTEAQRKRAGERLADLVRTAGFRISTGFVGTPLMADALADSGHPDLAYRLLLETGCPSWLYAVTMDATTVWERWDSMLPDGSINPGQMTSFNHYALGAVADWMHRRVAGLAPGDPGYRRIVVDPLFTAHLTKASARHLTPYGEAAVAWSRSGGRVRLEVTVPVGARARVAVPGESAPVEVGHGTHEWTADDVYGETPPLPADATIRQLIDHEPSWTTLAAAATRTGIVADDAELAGRLERYLDHPATELVDAVSPRGFSPSAEALQAELDSVLGR
modifications: Seq ID No. 1017 with mutation K219G
% conversion (Right peak/Left Peak) (−neg control) [1]: 2.74% | Cumulative FIOP from WT ([1]; estimate): 1.7 | % conversion (Right peak/Left Peak) ([1]; negative control 47.30): 50.04% | FIOP (% area increase variant/pos control) ([1]; positive control WT): 1.7 | % change in Left Peak [2, 3]: −40% | % change in Middle Peak [2, 3]: −96% | % change in Right Peak [2, 3]: 309% | % Right Peak [2, 3]: 80% | % Left Peak [2, 3]: 18% | % Middle Peak [2, 3]: 2% | % change in Left Peak [2, 4]: −35% | % change in Middle Peak [2, 4]: 17% | % change in Right Peak [2, 4]: 112% | % Right Peak [2, 4]: 29% | % Left Peak [2, 4]: 19% | % Middle Peak [2, 4]: 51%

From patent US20240026407A1, “MODIFICATION OF SAPONINS” (GLAXOSMITHKLINE BIOLOGICALS SA, priority 2020, published 2024)
